Data set [1] concerns T1, ac-GKAFRR-L12ADT (SEQ ID NO:41).
T1 sequence: GKAFRRX
To be noted: for Relative hydrolysis rate: scale: relative.

The test system of another data set is T2, Abz-GKAFRRLY′.
T2 sequence: GKAFRRLY
To be noted: for Relative hydrolysis rate: scale: relative.

Data set [2] has as its system T3, Y′GKAFRLK′-PEGA (SEQ ID NO:52).
T3 sequence: XGKAFRLX

For data set [3], the system named is T4, ac-GKAFRRLG (SEQ ID NO:43).
T4 sequence: GKAFRRLG

In data set [4] the test system is T5, Y′GSKGHFHL-Dap-K′ (SEQ ID NO:47).
T5 sequence: XGSKGHFHLXX

Another data set deals with T6, GKAFR-AMC.
T6 sequence: GKAFR

In data set [5] the test system is T7, Y′GKAFRR-Dap-FK′ (SEQ ID NO:38).
T7 sequence: XGKAFRRXFX

For data set [6], the system named is T8, Y′GSKGPFKL-Dap-K′ (SEQ ID NO:46).
T8 sequence: XGSKGPFKLXX

Data set [7] relates to soluble non-arginine containing peptides.
Data set [8] has as its system T9, Y′GSKGHFKL-Dap-K′ (SEQ ID NO:45).
T9 sequence: XGSKGHFKLXX

Data set [9] relates to T10, Y′GKAMRQ-Dap-FK′ (SEQ ID NO:39).
T10 sequence: XGKAMRQXFX

In data set [10] the test system is T11, Y′GKARAF-Dap-FK′ (SEQ ID NO:36).
T11 sequence: XGKARAFXFX

Data set [11] deals with T12, Y′GKAKPR-Dap-FK′ (SEQ ID NO:37).
T12 sequence: XGKAKPRXFX

Data set [12] has as its system T13, Y′GSKGHFKL-Dap-F-K′ (SEQ ID NO:40).
T13 sequence: XGSKGHFKLXFX

In data set [13] the test system is T14, Y′GKAFRRLGK′ (SEQ ID NO:21).
T14 sequence: XGKAFRRLGX

Plasmin, sequence (P00747 20-580): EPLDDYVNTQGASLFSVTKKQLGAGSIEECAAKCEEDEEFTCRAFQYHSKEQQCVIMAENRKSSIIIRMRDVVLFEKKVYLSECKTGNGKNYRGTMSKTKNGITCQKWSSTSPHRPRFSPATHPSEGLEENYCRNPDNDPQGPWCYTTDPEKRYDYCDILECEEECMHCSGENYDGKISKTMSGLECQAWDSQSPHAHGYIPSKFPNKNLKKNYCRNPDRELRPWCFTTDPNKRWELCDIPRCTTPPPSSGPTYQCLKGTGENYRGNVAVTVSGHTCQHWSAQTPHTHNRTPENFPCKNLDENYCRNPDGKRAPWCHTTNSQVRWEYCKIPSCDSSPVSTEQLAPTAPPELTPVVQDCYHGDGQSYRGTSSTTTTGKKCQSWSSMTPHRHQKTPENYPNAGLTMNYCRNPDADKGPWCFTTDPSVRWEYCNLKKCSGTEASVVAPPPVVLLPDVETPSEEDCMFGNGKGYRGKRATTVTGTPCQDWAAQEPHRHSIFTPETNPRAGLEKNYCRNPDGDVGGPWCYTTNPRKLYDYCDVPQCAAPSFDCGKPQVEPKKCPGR
Plasmin, sequence (P00747 581-810): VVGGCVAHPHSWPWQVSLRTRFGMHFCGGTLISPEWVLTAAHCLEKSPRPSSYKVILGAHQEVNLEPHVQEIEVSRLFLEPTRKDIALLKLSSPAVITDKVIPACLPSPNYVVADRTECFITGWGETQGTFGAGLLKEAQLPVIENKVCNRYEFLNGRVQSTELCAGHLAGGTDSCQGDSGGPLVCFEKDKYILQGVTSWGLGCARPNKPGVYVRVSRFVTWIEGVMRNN

Regarding Cathepsin B, the hydrolysis by protease entry (in data set [1]; with Abz-GKAFRRLY′) was “No appreciable hydrolysis of either substrate was observed following incubation with Cathepsin D or Cathepsin B” each time. Besides, the Relative hydrolysis rate (in data set [1]; in the data set with Abz-GKAFRRLY′) was 1 throughout.
In the case of Cathepsin D, the hydrolysis by protease result (in data set [1]; in the data set with Abz-GKAFRRLY′) was “No appreciable hydrolysis of either substrate was observed following incubation with Cathepsin D or Cathepsin B” throughout. Also, the Relative hydrolysis rate (in [1]; in the data set on Abz-GKAFRRLY′) was 1 each time.
Consider Plasmin, for which, in the data set with Abz-GKAFRRLY′, the “rate of hydrolysis relative to hK2” value is recorded as “Plasmin had a more than 10-fold slower rate of hydrolysis of the peptide substrate than hK2” and the Relative hydrolysis rate was found to be 36.
Urokinase returned a Relative hydrolysis rate in data set [1] of 1. For the same substance, in the data set with Abz-GKAFRRLY′, the hydrolysis by protease result is on record as “Urokinase showed low activity on the fluorescence quenched peptide substrate” and the Relative hydrolysis rate worked out at 17.
“human glandular kallikrein 2 (hK2), enzymatically active”: the “incubation time until fluorescent beads (on-bead digestion, 4 µg/ml hK2)” value in [2] is “digested to yield fluorescent beads after 10-12 hours of incubation with 4 µg/ml hK2”. For the same substance, in data set [3], the “hydrolysis by hK2 (HPLC)” value was “this peptide was rapidly hydrolyzed by hK2”. For the same substance, the “digestion by hK2 in solution (fluorescence-quenched peptide)” value (shortened to “digestion by hK2 in solution”) in data set [4] was “none of these three arginine free peptides were digested by hK2, even after prolonged incubation”. In [1], the “hydrolysis by hK2 (4 µg/ml), HPLC” value is listed as “the hK2 prodrug is rapidly cleaved by hK2”; the “percent of starting prodrug hydrolyzed after 1 hour (4 µg/ml hK2, HPLC)” value was “after 1 hour, more than 80% of the starting prodrug was hydrolyzed”; the “time to 50% hydrolysis (4 µg/ml hK2, HPLC)” value is reported as “In 25 min, 50% was hydrolyzed”; the Relative hydrolysis rate came to 125. In addition, in the data set on GKAFR-AMC, the Km entry is reported as “Km 146 µM”, the kcat result is “kcat 0.13 sec^-1” and the kcat/Km result is “kcat/Km 895 sec^-1 M^-1”. Moreover, in data set [5], the “Michaelis-Menten constant (Km)” value was “The Michaelis-Menten constant (Km) was determined at 26.5 µM”; the “hK2 mediated hydrolysis (fluorescence, 250 µM substrate, 8 µg/ml hK2)” value is given as “by far exceeded all other substrates”; the kcat result is “the kcat at 1.09 sec^-1”; the kcat/Km ratio entry was “the kcat/Km ratio was 41,132 sec^-1 M^-1”. In data set [5], the “on-bead digestion with hK2 (fluorescence)” value (from here on “on-bead digestion with hK2”) is reported as “reproduced fluorescence when these peptides were digested on-bead with hK2”; the “time to maximum digestion (70-75%)” value is “a value that was reached with Y′GKAFRR-Dap-F-K′ (SEQ ID NO:38) in less than 15 minutes”; the “time to more than 50% digestion (500 µM peptide, 4 µg/ml hK2)” value is “In less than five minutes, more than 50% of the peptide was digested”. Besides, in [6], the “digestion by hK2 in solution” value is “none of these three arginine free peptides were digested by hK2, even after prolonged incubation”. In addition, the “hydrolysis by hK2 in solution” value in data set [7] is listed as “the soluble non-arginine containing peptides were not hydrolyzed by hK2”. Also, in [8], the “digestion by hK2 in solution” value is “none of these three arginine free peptides were digested by hK2, even after prolonged incubation”. Moreover, in data set [9], the “on-bead digestion with hK2” value is “reproduced fluorescence when these peptides were digested on-bead with hK2” and the “time to digestion of the same amount (more than 50%) of peptide” value (“time … (more than 50%) of peptide” for short) is given as “For the other peptides, digestion of the same amount of peptide took 19-29 minutes”. Besides, in data set [10], the “on-bead digestion with hK2” value is on record as “reproduced fluorescence when these peptides were digested on-bead with hK2” and the “time … (more than 50%) of peptide” value is given as “For the other peptides, digestion of the same amount of peptide took 19-29 minutes”. In data set [11], the “on-bead digestion with hK2” value is “reproduced fluorescence when these peptides were digested on-bead with hK2” and the “time … (more than 50%) of peptide” value is “For the other peptides, digestion of the same amount of peptide took 19-29 minutes”. For the same substance, in data set [12], the “hK2 mediated hydrolysis (fluorescence, 250 µM substrate, 8 µg/ml hK2)” value is reported as “did not show any hydrolysis”. In addition, the Relative hydrolysis rate in the data set on Abz-GKAFRRLY′ came out at 353. Besides, the “hK2 hydrolysis rate (fluorescence)” value in data set [13] is given as “Substitution of Dap-F with Leu-Gly resulted in only a modest decrease in hydrolysis rate”.

These data come from patent US7906477.
